From the RNAGym collection of RNA variant scans (doi:10.7554/elife.80360)

B1: Hammerhead Ribozyme (parent)
chain: ACCGGAUGUGCUUUCCGGUCUGAUGAGUCCGUGAGGACGAAACAG

Variants of: B1
Test: self-cleavage, relative activity (ratio to wild type); higher = more cleavage; co-transcriptional

| Variant | self-cleavage |
| --- | --- |
| ACCGGAUGUGCUUCCCGGUCUGAUAAGUCCGUGAGGACGAAACAG [U14C G25A] | 0.305 |
| ACCGGAUGUGCUUCCCGGUCUGAUGAGUCCGUGAGGACGAAACCG [U14C A44C] | 0.489 |
| ACCGGAUGUGCUUCCCGGUCUGAUGAGUCCGUGAGGACGAAACUG [U14C A44U] | 0.393 |
| ACCGGAUGUGCUUCCCGGUCUGAUGAGUCCGUGAGGACGAAACGG [U14C A44G] | 1.24 |
| ACCGGAUGUGCUUCUCGGUCUGAUGAGUCCGUGAGGACGAAACAG [U14C C15U] | 0.996 |
| ACCGGAUGUGCUUCACGGUCUGAUGAGUCCGUGAGGACGAAACAG [U14C C15A] | 0.72 |
| ACCGGAUGUGCUUCGCGGUCUGAUGAGUCCGUGAGGACGAAACAG [U14C C15G] | 0.794 |
| ACCGGAUGUGCUUCCCAGUCUGAUGAGUCCGUGAGGACGAAACAG [U14C G17A] | 0.494 |
| ACCGGAUGUGCUUCCCCGUCUGAUGAGUCCGUGAGGACGAAACAG [U14C G17C] | 0.342 |
| ACCGGAUGUGCUUCCCUGUCUGAUGAGUCCGUGAGGACGAAACAG [U14C G17U] | 0.561 |
| ACCGGAUGUGCUUCCCGGUCUGAUGAGUCCGUGAGGACGUAACAG [U14C A40U] | 0.354 |
| ACCGGAUGUGCUUCCCGGUCUGAUGAGUCCGUGAGGACGCAACAG [U14C A40C] | 0.277 |
| ACCGGAUGUGCUUCCCGGUCUGAUGAGUCCGUGAGGACGGAACAG [U14C A40G] | 0.273 |
| ACCGGAUGUGCUUCCCGGUCUGAUGAGUCCGUGAGGAAGAAACAG [U14C C38A] | 0.532 |
| ACCGGAUGUGCUUCCCGGUCUGAUGAGUCCGUGAGGAGGAAACAG [U14C C38G] | 0.489 |
| ACCGGAUGUGCUUCCCGGUCUGAUGAGUCCGUGAGGAUGAAACAG [U14C C38U] | 1.15 |
| ACCGGAUGUGCUUACCGGGCUGAUGAGUCCGUGAGGACGAAACAG [U14A U19G] | 0.356 |
| ACCGGAUGUGCUUACCGGACUGAUGAGUCCGUGAGGACGAAACAG [U14A U19A] | 0.304 |
| ACCGGAUGUGCUUACCGGCCUGAUGAGUCCGUGAGGACGAAACAG [U14A U19C] | 0.474 |

| Variant | self-cleavage |
| --- | --- |
| ACCGGAUGUGCUUCCCGGUCUGAUGAGUCCGUGAAGACGAAACAG [U14C G35A] | 0.565 |
| ACCGGAUGUGCUUCCCGGUCUGAUGAGUCCGUGAUGACGAAACAG [U14C G35U] | 0.761 |
| ACCGGAUGUGCUUCCCGGUCUGAUGAGUCCGUGACGACGAAACAG [U14C G35C] | 0.499 |
| ACCGGAUGUGCUUCCCGGUCUGAUGAGUCCGUGAGUACGAAACAG [U14C G36U] | 0.455 |
| ACCGGAUGUGCUUCCCGGUCUGAUGAGUCCGUGAGAACGAAACAG [U14C G36A] | 0.552 |
| ACCGGAUGUGCUUCCCGGUCUGAUGAGUCCGUGAGCACGAAACAG [U14C G36C] | 0.31 |
| ACCGGAUGUGCUUACCGGUCUGAUGAGUCCGAGAGGACGAAACAG [U14A U32A] | 1.38 |
| ACCGGAUGUGCUUACCGGUCUGAUGAGUCCGCGAGGACGAAACAG [U14A U32C] | 0.946 |
| ACCGGAUGUGCUUACCGGUCUGAUGAGUCCGGGAGGACGAAACAG [U14A U32G] | 0.989 |
| ACCGGAUGUGCUUCCCGGUCUGAUGAGUCCGUGGGGACGAAACAG [U14C A34G] | 0.682 |
| ACCGGAUGUGCUUCCCGGUCUGAUGAGUCCGUGUGGACGAAACAG [U14C A34U] | 0.67 |
| ACCGGAUGUGCUUCCCGGUCUGAUGAGUCCGUGCGGACGAAACAG [U14C A34C] | 0.791 |
| ACCGGAUGUGCUUCCCGGUCUGAUGAGUCCGUGAGGGCGAAACAG [U14C A37G] | 0.945 |
| ACCGGAUGUGCUUCCCGGUCUGAUGAGUCCGUGAGGUCGAAACAG [U14C A37U] | 0.624 |
| ACCGGAUGUGCUUCCCGGUCUGAUGAGUCCGUGAGGCCGAAACAG [U14C A37C] | 0.436 |
| ACCGGAUGUGCUUCCCGGUCUGAUGAGUCCGUGAGGACGAAACAC [U14C G45C] | 0.441 |
| ACCGGAUGUGCUUCCCGGUCUGAUGAGUCCGUGAGGACGAAACAA [U14C G45A] | 0.472 |
| ACCGGAUGUGCUUCCCGGUCUGAUGAGUCCGUGAGGACGAAACAU [U14C G45U] | 0.485 |
| ACCGGAUGUGCUUCCAGGUCUGAUGAGUCCGUGAGGACGAAACAG [U14C C16A] | 0.931 |

| Variant | self-cleavage |
| --- | --- |
| ACCGGAUGUGCUUCCUGGUCUGAUGAGUCCGUGAGGACGAAACAG [U14C C16U] | 0.95 |
| ACCGGAUGUGCUUCCGGGUCUGAUGAGUCCGUGAGGACGAAACAG [U14C C16G] | 0.722 |
| ACCGGAUGUGCUUACCGGUCUGAGGAGUCCGUGAGGACGAAACAG [U14A U24G] | 1.12 |
| ACCGGAUGUGCUUACCGGUCUGACGAGUCCGUGAGGACGAAACAG [U14A U24C] | 1.2 |
| ACCGGAUGUGCUUACCGGUCUGAAGAGUCCGUGAGGACGAAACAG [U14A U24A] | 0.627 |
| ACCGGAUGUGCUUCCCGGUCUGAUGAUUCCGUGAGGACGAAACAG [U14C G27U] | 0.331 |
| ACCGGAUGUGCUUCCCGGUCUGAUGACUCCGUGAGGACGAAACAG [U14C G27C] | 0.54 |
| ACCGGAUGUGCUUCCCGGUCUGAUGAAUCCGUGAGGACGAAACAG [U14C G27A] | 0.602 |
| ACCGGAUGUGCUUCCCGGUCUGAUGAGUCCGUUAGGACGAAACAG [U14C G33U] | 1.09 |
| ACCGGAUGUGCUUCCCGGUCUGAUGAGUCCGUCAGGACGAAACAG [U14C G33C] | 0.851 |
| ACCGGAUGUGCUUCCCGGUCUGAUGAGUCCGUAAGGACGAAACAG [U14C G33A] | 0.754 |
| ACCGGAUGUGCUUACCGGUCUGAUGAGGCCGUGAGGACGAAACAG [U14A U28G] | 0.555 |
| ACCGGAUGUGCUUACCGGUCUGAUGAGCCCGUGAGGACGAAACAG [U14A U28C] | 0.923 |
| ACCGGAUGUGCUUACCGGUCUGAUGAGACCGUGAGGACGAAACAG [U14A U28A] | 0.656 |
| ACCGGAUGUGCUUGCCGGUCUGGUGAGUCCGUGAGGACGAAACAG [U14G A23G] | 0.248 |
| ACCGGAUGUGCUUGCCGGUCUGUUGAGUCCGUGAGGACGAAACAG [U14G A23U] | 0.256 |
| ACCGGAUGUGCUUGCCGGUCUGCUGAGUCCGUGAGGACGAAACAG [U14G A23C] | 0.36 |
| ACCGGAUGUGCUUGCCGGUCUGAUGAGUCCGUGAGGACGAAACAG [U14G] | 0.77 |
| ACCGGAUGUGCUUCCCGGUCUGAUGAGUCCGUGAGGACGAAACAG [U14C] | 0.932 |
